Data taken from paper PMC7483370 (Molecular cell, 2020).

T1: Androgen receptor, full-length, flag-tagged, recombinant (baculovirus) (human, UniProt P10275 1-920)
T1 sequence (looked up): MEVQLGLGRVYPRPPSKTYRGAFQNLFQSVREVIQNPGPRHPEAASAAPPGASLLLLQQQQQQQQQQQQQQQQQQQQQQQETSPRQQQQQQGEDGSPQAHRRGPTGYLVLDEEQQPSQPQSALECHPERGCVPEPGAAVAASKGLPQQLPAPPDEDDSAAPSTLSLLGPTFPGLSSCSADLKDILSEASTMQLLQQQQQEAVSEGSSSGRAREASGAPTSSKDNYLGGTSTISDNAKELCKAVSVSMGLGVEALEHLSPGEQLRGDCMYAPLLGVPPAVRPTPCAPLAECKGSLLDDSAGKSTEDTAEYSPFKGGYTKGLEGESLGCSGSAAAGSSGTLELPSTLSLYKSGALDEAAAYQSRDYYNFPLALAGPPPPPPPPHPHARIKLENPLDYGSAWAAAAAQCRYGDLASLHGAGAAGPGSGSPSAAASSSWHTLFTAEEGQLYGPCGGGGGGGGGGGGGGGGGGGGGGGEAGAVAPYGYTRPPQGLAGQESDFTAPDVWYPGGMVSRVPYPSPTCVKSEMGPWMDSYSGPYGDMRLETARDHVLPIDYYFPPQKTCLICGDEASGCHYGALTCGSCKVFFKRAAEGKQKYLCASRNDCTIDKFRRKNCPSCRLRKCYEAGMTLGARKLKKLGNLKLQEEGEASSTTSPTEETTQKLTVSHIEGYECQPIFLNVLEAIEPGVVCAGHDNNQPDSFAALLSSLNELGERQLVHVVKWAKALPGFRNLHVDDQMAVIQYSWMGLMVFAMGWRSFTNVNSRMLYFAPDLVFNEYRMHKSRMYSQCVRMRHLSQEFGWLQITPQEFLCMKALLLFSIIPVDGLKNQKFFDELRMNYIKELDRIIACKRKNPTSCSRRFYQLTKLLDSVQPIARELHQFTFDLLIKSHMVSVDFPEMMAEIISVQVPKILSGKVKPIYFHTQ

B1: Flag-tagged AR (1-669aa), deletion mutant lacking the LBD (domain or fragment, human, UniProt P10275 1-669, looked up)
chain: MEVQLGLGRVYPRPPSKTYRGAFQNLFQSVREVIQNPGPRHPEAASAAPPGASLLLLQQQQQQQQQQQQQQQQQQQQQQQETSPRQQQQQQGEDGSPQAHRRGPTGYLVLDEEQQPSQPQSALECHPERGCVPEPGAAVAASKGLPQQLPAPPDEDDSAAPSTLSLLGPTFPGLSSCSADLKDILSEASTMQLLQQQQQEAVSEGSSSGRAREASGAPTSSKDNYLGGTSTISDNAKELCKAVSVSMGLGVEALEHLSPGEQLRGDCMYAPLLGVPPAVRPTPCAPLAECKGSLLDDSAGKSTEDTAEYSPFKGGYTKGLEGESLGCSGSAAAGSSGTLELPSTLSLYKSGALDEAAAYQSRDYYNFPLALAGPPPPPPPPHPHARIKLENPLDYGSAWAAAAAQCRYGDLASLHGAGAAGPGSGSPSAAASSSWHTLFTAEEGQLYGPCGGGGGGGGGGGGGGGGGGGGGGGEAGAVAPYGYTRPPQGLAGQESDFTAPDVWYPGGMVSRVPYPSPTCVKSEMGPWMDSYSGPYGDMRLETARDHVLPIDYYFPPQKTCLICGDEASGCHYGALTCGSCKVFFKRAAEGKQKYLCASRNDCTIDKFRRKNCPSCRLRKCYEAGMTLGARKLKKLGNLKLQEEGEASSTTSPTEETTQKLTVSHIEGYE
B2: SRC-3, purified recombinant (baculovirus) (natural protein)
chain: not shown

What was measured:
[1] = biological target: p300, purified recombinant (baculovirus) (human, UniProt Q09472 1-2414); experiment: co-IP
Chain of p300, purified recombinant (baculovirus) (Q09472 whole entry): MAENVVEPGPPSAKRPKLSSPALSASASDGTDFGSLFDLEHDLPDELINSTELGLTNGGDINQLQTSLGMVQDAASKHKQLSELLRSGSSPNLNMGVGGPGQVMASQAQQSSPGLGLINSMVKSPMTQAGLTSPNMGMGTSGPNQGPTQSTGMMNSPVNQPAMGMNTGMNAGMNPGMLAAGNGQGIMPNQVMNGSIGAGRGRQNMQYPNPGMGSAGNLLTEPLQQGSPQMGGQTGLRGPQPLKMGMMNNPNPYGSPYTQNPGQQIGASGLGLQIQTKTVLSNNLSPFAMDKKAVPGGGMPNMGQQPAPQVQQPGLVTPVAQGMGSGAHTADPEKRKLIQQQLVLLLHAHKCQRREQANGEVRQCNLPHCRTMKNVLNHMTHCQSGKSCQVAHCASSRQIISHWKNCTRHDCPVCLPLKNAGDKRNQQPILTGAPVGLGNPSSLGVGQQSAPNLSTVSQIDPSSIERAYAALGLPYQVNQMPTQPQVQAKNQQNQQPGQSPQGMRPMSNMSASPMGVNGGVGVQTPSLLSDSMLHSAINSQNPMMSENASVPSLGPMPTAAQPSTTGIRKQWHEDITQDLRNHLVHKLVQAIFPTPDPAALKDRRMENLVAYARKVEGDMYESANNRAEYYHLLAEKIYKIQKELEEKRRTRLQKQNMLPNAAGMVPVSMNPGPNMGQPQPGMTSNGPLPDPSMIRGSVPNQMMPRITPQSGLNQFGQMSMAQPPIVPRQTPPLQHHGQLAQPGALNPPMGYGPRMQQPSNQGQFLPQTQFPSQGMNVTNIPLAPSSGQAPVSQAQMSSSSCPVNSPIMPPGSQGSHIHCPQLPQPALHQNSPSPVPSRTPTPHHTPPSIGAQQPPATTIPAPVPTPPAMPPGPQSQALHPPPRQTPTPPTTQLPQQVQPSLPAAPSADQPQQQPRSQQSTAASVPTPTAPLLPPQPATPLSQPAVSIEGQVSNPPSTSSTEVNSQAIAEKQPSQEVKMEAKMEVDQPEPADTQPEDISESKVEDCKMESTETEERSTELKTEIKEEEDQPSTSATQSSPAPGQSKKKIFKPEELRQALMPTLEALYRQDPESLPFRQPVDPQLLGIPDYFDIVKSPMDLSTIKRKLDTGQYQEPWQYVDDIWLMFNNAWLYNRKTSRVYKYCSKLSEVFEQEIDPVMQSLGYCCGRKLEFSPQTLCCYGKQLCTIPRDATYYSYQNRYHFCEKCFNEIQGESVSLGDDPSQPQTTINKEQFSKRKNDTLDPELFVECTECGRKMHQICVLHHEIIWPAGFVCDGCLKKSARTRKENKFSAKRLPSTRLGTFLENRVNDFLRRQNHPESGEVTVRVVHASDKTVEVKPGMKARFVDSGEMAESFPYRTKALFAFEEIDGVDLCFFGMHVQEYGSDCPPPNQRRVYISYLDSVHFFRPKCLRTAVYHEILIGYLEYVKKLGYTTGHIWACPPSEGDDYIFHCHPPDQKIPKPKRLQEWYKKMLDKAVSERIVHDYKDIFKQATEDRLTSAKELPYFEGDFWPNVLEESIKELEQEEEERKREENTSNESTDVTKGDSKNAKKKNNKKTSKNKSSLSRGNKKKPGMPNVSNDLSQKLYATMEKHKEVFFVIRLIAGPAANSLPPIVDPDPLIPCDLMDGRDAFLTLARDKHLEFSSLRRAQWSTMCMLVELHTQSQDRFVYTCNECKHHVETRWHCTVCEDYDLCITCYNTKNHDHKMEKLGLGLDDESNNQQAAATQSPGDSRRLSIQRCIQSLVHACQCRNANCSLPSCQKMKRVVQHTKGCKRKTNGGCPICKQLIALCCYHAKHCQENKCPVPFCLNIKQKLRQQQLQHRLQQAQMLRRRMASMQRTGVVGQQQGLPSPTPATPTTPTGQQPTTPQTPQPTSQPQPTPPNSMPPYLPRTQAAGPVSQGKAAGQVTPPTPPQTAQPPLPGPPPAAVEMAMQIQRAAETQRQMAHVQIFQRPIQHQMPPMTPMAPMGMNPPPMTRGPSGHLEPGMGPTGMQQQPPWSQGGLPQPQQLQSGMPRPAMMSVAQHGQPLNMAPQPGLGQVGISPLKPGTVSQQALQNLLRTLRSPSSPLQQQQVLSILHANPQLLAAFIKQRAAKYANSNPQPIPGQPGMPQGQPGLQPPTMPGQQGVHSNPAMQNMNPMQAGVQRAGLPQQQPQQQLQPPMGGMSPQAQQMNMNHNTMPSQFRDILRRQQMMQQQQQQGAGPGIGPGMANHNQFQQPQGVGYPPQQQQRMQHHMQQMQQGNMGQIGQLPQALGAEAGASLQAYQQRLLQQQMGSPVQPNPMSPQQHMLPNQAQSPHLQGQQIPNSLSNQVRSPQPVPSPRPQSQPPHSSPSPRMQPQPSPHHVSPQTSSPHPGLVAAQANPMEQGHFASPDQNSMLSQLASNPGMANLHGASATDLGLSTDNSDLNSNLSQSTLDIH

[2] = biological target: T1, Androgen receptor, full-length, …; experiment: cryo-EM structure

Row | Binder | binding result [1] | stoichiometry N [2]
1 | B1 | binds | –
2 | B2 | – | 1
